Assays:
DDX6 = assay: mass spectrometry of G3BP1-GFP interactome; details: HEK293T G3BP1/2 DKO cells; read off a plot
PRC2C = assay: mass spectrometry of G3BP1-GFP interactome; details: HEK293T G3BP1/2 DKO cells; read off a plot
[1] = target: GST-NTF2L (GST-tagged NTF2-like domain of G3BP1) (human); assay: SPR
P121A = assay: mass spectrometry of G3BP1-GFP interactome; details: HEK293T G3BP1/2 DKO cells; read off a plot
P121C = assay: mass spectrometry of G3BP1-GFP interactome; details: HEK293T G3BP1/2 DKO cells; read off a plot
NUP93 = assay: mass spectrometry of G3BP1-GFP interactome; details: HEK293T G3BP1/2 DKO cells; read off a plot
NU205 = assay: mass spectrometry of G3BP1-GFP interactome; details: HEK293T G3BP1/2 DKO cells; read off a plot
IMB1 = assay: mass spectrometry of G3BP1-GFP interactome; details: HEK293T G3BP1/2 DKO cells; read off a plot
PABP1 = assay: mass spectrometry of G3BP1-GFP interactome; details: HEK293T G3BP1/2 DKO cells; read off a plot
NUFP2 = assay: mass spectrometry of G3BP1-GFP interactome; details: HEK293T G3BP1/2 DKO cells; read off a plot
PABP4 = assay: mass spectrometry of G3BP1-GFP interactome; details: HEK293T G3BP1/2 DKO cells; read off a plot
RS3 = assay: mass spectrometry of G3BP1-GFP interactome; details: HEK293T G3BP1/2 DKO cells; read off a plot
RBP2 = assay: mass spectrometry of G3BP1-GFP interactome; details: HEK293T G3BP1/2 DKO cells; read off a plot
TRAP1 = assay: mass spectrometry of G3BP1-GFP interactome; details: HEK293T G3BP1/2 DKO cells; read off a plot

Sequence of N-WT (1–25) peptide (P0DTC9 1-25): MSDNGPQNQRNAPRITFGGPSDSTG

For G3BP1-EGFP (from UniProt Q13283) F112A, the other: Log2(fold change) (DDX6) was -2.7 and the other: Log2(fold change) (PRC2C) was 5.8.
G3BP1-EGFP (from UniProt Q13283) V11A showed an other: Log2(fold change) (DDX6) of -2.3.
Substance “N-WT (1–25) peptide (from UniProt P0DTC9 1-25)” has a Kd [1] of 1.14 µM.
In the case of G3BP1-EGFP (from UniProt Q13283) F33W, the other: Log2(fold change) (P121A) is reported as 2.9, the other: Log2(fold change) (P121C) is reported as 2.5 and the other: Log2(fold change) (NUP93) is reported as 8.4. For the same substance, the other: Log2(fold change) (NU205) was 8.7, the other: Log2(fold change) (IMB1) was 6.7 and the other: Log2(fold change) (PABP1) was -4.1. The other: Log2(fold change) (NUFP2) was -9.7, the other: Log2(fold change) (PABP4) was -8.9 and the other: Log2(fold change) (RS3) was -6.4. For the same substance, the other: Log2(fold change) (RBP2) was 8.9.
Work on G3BP1-EGFP (from UniProt Q13283) F124W yielded an other: Log2(fold change) (IMB1) of 6.2 and an other: Log2(fold change) (TRAP1) of 6.

Reference: publication PMC11044841
